{"source": "paper PMC10089660", "proteins": {"B1": {"name": "paraoxonase 1 (PON1): N253G (protein)", "parent chain": "MAKLIALTLLGMGLALFRNHQSSYQTRLNALREVQPVELPNCNLVKGIETGSEDLEILPNGLAFISSGLKYPGIKSFNPNSPGKILLMDLNEEDPTVLELGITGSKFDVSSFNPHGISTFTDEDNAMYLLVVNHPDAKSTVELFKFQEEEKSLLHLKTIRHKLLPNLNDIVAVGPEHFYGTNDHYFLDPYLQSWEMYLGLAWSYVVYYSPSEVRVVAEGFDFANGINISPDGKYVYIAELLAHKIHVYEKHANWTLTPLKSLDFNTLVDNISVDPETGDLWVGCHPNGMKIFFYDSENPPASEVLRIQNILTEEPKVTQVYAENGTVLQGSTVASVYKGKLLIGTVFHKALYCEL"}, "B2": {"name": "paraoxonase 1 (PON1): N324G (protein)", "parent chain": "B1 parent chain"}, "B3": {"name": "paraoxonase 1 (PON1): PNGase F (protein)", "parent chain": "B1 parent chain"}, "B4": {"name": "paraoxonase 1 (PON1): SLC35C1 RNAi (protein)", "parent chain": "B1 parent chain"}}, "key": {"OxiSelect ROS/RNS assay": {"assay": "OxiSelect ROS/RNS assay", "conditions": "glycan lost; control: PON1-WT"}, "[1]": {"assay": "SRB drug sensitivity assay", "conditions": "glycan lost; control: PON1-WT"}, "[2]": {"assay": "ELISA of secretome PON1, H1993-GR", "conditions": "glycan lost; control: PON1-WT"}, "[3]": {"assay": "sandwich ELISA of IL-6, TNF-α, GM-CSF", "conditions": "glycan lost; control: PON1-WT"}, "[4]": {"assay": "intracellular paraoxonase activity, H1993-GR", "conditions": "glycan lost; control: PON1-WT"}, "[5]": {"assay": "intracellular arylesterase activity, H1993-GR", "conditions": "glycan lost; control: PON1-WT"}, "[6]": {"assay": "CHX chase, immunoblot, PON1 remaining, H1993-GR", "conditions": "glycan lost; control: PON1-WT"}, "[7]": {"assay": "ATF6 ELISA of Golgi/ER fraction, immunofluorescence", "conditions": "glycan lost; control: PON1-WT"}, "[8]": {"assay": "trypsin sensitivity, PON1 ELISA, A549 Golgi/ER fraction", "conditions": "glycan lost; control: PON1-WT"}, "[9]": {"assay": "trypsin sensitivity, PON1 ELISA, H1993-GR Golgi/ER fraction", "conditions": "glycan lost; control: PON1-WT"}, "[10]": {"assay": "trypsin sensitivity, PON1 ELISA, PON1-overexpressing cells Golgi/ER", "conditions": "glycan lost; control: PON1-WT"}, "[11]": {"assay": "ELISA of secretome PON1, PNGase F in culture", "conditions": "glycan lost; control: untreated"}, "[12]": {"assay": "paraoxonase activity, H1993-GR Golgi/ER fraction", "conditions": "glycan changed form; control: siControl"}}}
{"protein": "B1", "values": [{"measurement": "other: ROS/RNS in admixture secretome", "setting": "OxiSelect ROS/RNS assay", "value": "increases"}, {"measurement": "other: EGFR-TKI resistance of GR and ER clones", "setting": "[1]", "value": "decreases"}, {"measurement": "expression_or_secretion", "setting": "[2]", "value": "decreases"}, {"measurement": "other: secretome cytokine levels", "setting": "[3]", "value": "increases"}, {"measurement": "enzymatic_activity", "setting": "[4]", "value": "no change"}, {"measurement": "enzymatic_activity", "setting": "[5]", "value": "decreases"}, {"measurement": "degradation_or_half_life", "setting": "[6]", "value": "decreases"}, {"measurement": "other: ATF6 level in co-cultured DR clones", "setting": "[7]", "value": "increases"}, {"measurement": "stability_or_folding", "setting": "[8]", "value": "no change"}, {"measurement": "stability_or_folding", "setting": "[9]", "value": "decreases"}, {"measurement": "stability_or_folding", "setting": "[10]", "value": "decreases"}]}
{"protein": "B2", "values": [{"measurement": "other: EGFR-TKI resistance of GR and ER clones", "setting": "[1]", "value": "decreases"}, {"measurement": "expression_or_secretion", "setting": "[2]", "value": "decreases"}, {"measurement": "stability_or_folding", "setting": "[9]", "value": "decreases"}]}
{"protein": "B3", "values": [{"measurement": "expression_or_secretion", "setting": "[11]", "value": "no change"}]}
{"protein": "B4", "values": [{"measurement": "enzymatic_activity", "setting": "[12]", "value": "no change"}]}
